Literature values, collected in paper PMC12590814.
Like-named read-outs stand apart in the source and are kept apart here.

Tests used:
[1] = biological target: calmodulin (Homo sapiens) (UniProt P0DP23)
[2] = biological target: calmodulin (Homo sapiens) (UniProt P0DP23); remark: listed apart in the source

| Substance | Kd [1] | Kd [2] |
| --- | --- | --- |
| PMCA2 (from UniProt Q01814) | 7.5 nM | – |
| PMCA3 (from UniProt Q16720) | – | 7.5 nM |
